Here are results for 2 substances from US20230312678A1.

Where two headings read alike, the source gives them in different places.

For assay [1], the target named is ED-tagged full-length PD-1 receptor stably expressed in Jurkat cells (PathHunter PD-1 Signaling Bioassay, DiscoverX) (UniProt Q15116). The assay is described as follows: cell-based or functional assay.
The target is the same in assay [2]. Description: cell-based or functional assay. The source holds these as a separate data set.

Sequence of UniProt Q15116 (Q15116 25-288): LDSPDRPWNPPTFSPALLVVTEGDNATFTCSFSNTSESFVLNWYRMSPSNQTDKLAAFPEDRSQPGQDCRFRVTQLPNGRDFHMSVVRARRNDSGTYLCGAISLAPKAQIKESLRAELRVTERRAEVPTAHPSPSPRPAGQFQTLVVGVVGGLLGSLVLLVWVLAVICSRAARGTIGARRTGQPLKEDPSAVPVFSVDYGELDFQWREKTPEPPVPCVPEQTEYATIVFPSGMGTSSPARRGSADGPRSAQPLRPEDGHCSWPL

For “hPD-L1-Fc-GPI artificial synapses engineered from exosomes (hPDL1-Fc-GPI fusion polypeptide displayed on the exosome surface) (Fc fusion)”, the results for the Relative Light Units (RLU), modified PathHunter PD-1 Signaling Bioassay; fold against soluble PD-L1-Fc in assay [1] and in assay [2] were 10000 fold and 1000 fold, respectively.

Regarding “hPD-L2-Fc-GPI artificial synapses engineered from exosomes (hPDL2-Fc-GPI fusion polypeptide displayed on the exosome surface) (Fc fusion)”, the Relative Light Units (RLU), modified PathHunter PD-1 Signaling Bioassay; fold against soluble PD-L2-Fc in assay [1] turned out to be 10000 fold; in assay [2] it was 1000 fold.
